B1: CPEB3 Ribozyme (parent)
chain: GGGGGCCACAGCAGAAGCGUUCACGUCGCGGCCCCUGUCAGAUUCUGGUGAAUCUGCGAAUUCUGCUGU

Variants of: B1
Experiment: self-cleavage, relative activity (ratio to wild type); higher = more cleavage; co-transcriptional

Variant | self-cleavage
GGGGGCCACAGCAGAAGCGCUCACGUCGCGGCCCCUGUCAGAUUCUGGUGAAUCUGCGAAUUCUGAUGU | 0.204
GGGGGCCACAGCAGAAGCGCUCACGUCGCGGCCCCUGUCAGAUUCUGGUGAAUCUGCGAAUUCUGUUGU | 0.272
GGGGGCCACAGCAGAAGCGCUCACAUCGCGGCCCCUGUCAGAUUCUGGUGAAUCUGCGAAUUCUGCUGU | 0.68
GGGGGCCACAGCAGAAGCGCUCACCUCGCGGCCCCUGUCAGAUUCUGGUGAAUCUGCGAAUUCUGCUGU | 0.249
GGGGGCCACAGCAGAAGCGCUCACUUCGCGGCCCCUGUCAGAUUCUGGUGAAUCUGCGAAUUCUGCUGU | 0.616
GGGGGCCACAGCAGAAGCGCUCACGUCACGGCCCCUGUCAGAUUCUGGUGAAUCUGCGAAUUCUGCUGU | 0.117
GGGGGCCACAGCAGAAGCGCUCACGUCCCGGCCCCUGUCAGAUUCUGGUGAAUCUGCGAAUUCUGCUGU | 0.133
GGGGGCCACAGCAGAAGCGCUCACGUCGCCGCCCCUGUCAGAUUCUGGUGAAUCUGCGAAUUCUGCUGU | 0.178
GGGGGCCACAGCAGAAGCGCUCACGUCGCUGCCCCUGUCAGAUUCUGGUGAAUCUGCGAAUUCUGCUGU | 0.153
GGGGGCCACAGCAGAAGCGCUCACGUCGCGACCCCUGUCAGAUUCUGGUGAAUCUGCGAAUUCUGCUGU | 0.261
GGGGGCCACAGCAGAAGCGCUCACGUCGCGCCCCCUGUCAGAUUCUGGUGAAUCUGCGAAUUCUGCUGU | 0.148
GGGGGCCACAGCAGAAGCGCUCACGUCGCGUCCCCUGUCAGAUUCUGGUGAAUCUGCGAAUUCUGCUGU | 0.204
GGGGGCCACAGCAGAAGCGCUCACGUCGCGGCCCCUAUCAGAUUCUGGUGAAUCUGCGAAUUCUGCUGU | 0.102
GGGGGCCACAGCAGAAGCGCUCACGUCGCGGCCCCUUUCAGAUUCUGGUGAAUCUGCGAAUUCUGCUGU | 0.114
GGGGGCCACAGCAGAAGCGCUCACGUCGCGGCCCCUGUCAAAUUCUGGUGAAUCUGCGAAUUCUGCUGU | 0.247
GGGGGCCACAGCAGAAGCGCUCACGUCGCGGCCCCUGUCACAUUCUGGUGAAUCUGCGAAUUCUGCUGU | 0.139
GGGGGCCACAGCAGAAGCGCUCACGUCGCGGCCCCUGUCAUAUUCUGGUGAAUCUGCGAAUUCUGCUGU | 0.137
GGGGGCCACAGCAGAAGCGCUCACGUCGCGGCCCCUGUCAGAUUCUAGUGAAUCUGCGAAUUCUGCUGU | 0.243
GGGGGCCACAGCAGAAGCGCUCACGUCGCGGCCCCUGUCAGAUUCUCGUGAAUCUGCGAAUUCUGCUGU | 0.188
GGGGGCCACAGCAGAAGCGCUCACGUCGCGGCCCCUGUCAGAUUCUUGUGAAUCUGCGAAUUCUGCUGU | 0.239
GGGGGCCACAGCAGAAGCGCUCACGUCGCGGCCCCUGUCAGAUUCUGAUGAAUCUGCGAAUUCUGCUGU | 0.189
GGGGGCCACAGCAGAAGCGCUCACGUCGCGGCCCCUGUCAGAUUCUGUUGAAUCUGCGAAUUCUGCUGU | 0.242
GGGGGCCACAGCAGAAGCGCUCACGUCGCGGCCCCUGUCAGAUUCUGGUUAAUCUGCGAAUUCUGCUGU | 0.245
GGGGGCCACAGCAGAAGCGCUCACGUCGCGGCCCCUGUCAGAUUCUGGUGAAUCUACGAAUUCUGCUGU | 0.223
GGGGGCCACAGCAGAAGCGCUCACGUCGCGGCCCCUGUCAGAUUCUGGUGAAUCUGCAAAUUCUGCUGU | 0.161
GGGGGCCACAGCAGAAGCGCUCACGUCGCGGCCCCUGUCAGAUUCUGGUGAAUCUGCCAAUUCUGCUGU | 0.147

Variant | self-cleavage
GGGGGCCACAGCAGAAGCGCUCACGUCGCGGCCCCUGUCAGAUUCUGGUGAAUCUGCUAAUUCUGCUGU | 0.204
GGGGGCCACAGCAGAAGCGCUCACGUCGCGGCCCCUGUCAGAUUCUGGUGAAUCUGCGAAUUCUACUGU | 0.141
GGGGGCCACAGCAGAAGCGCUCACGUCGCGGCCCCUGUCAGAUUCUGGUGAAUCUGCGAAUUCUGCUAU | 0.336
GGGGGCCACAGCAGAAGCGCACACGUCGCGGCCCCUGUCAGAUUCUGGUGAAUCUGCGAAUUCUGCUGU | 0.208
GGGGGCCACAGCAGAAGCGCUCACGACGCGGCCCCUGUCAGAUUCUGGUGAAUCUGCGAAUUCUGCUGU | 0.205
GGGGGCCACAGCAGAAGCGCUCACGCCGCGGCCCCUGUCAGAUUCUGGUGAAUCUGCGAAUUCUGCUGU | 0.235
GGGGGCCACAGCAGAAGCGCUCACGGCGCGGCCCCUGUCAGAUUCUGGUGAAUCUGCGAAUUCUGCUGU | 0.114
GGGGGCCACAGCAGAAGCGCUCACGUCGCGGCCCCAGUCAGAUUCUGGUGAAUCUGCGAAUUCUGCUGU | 0.125
GGGGGCCACAGCAGAAGCGCUCACGUCGCGGCCCCUGACAGAUUCUGGUGAAUCUGCGAAUUCUGCUGU | 0.181
GGGGGCCACAGCAGAAGCGCUCACGUCGCGGCCCCUGCCAGAUUCUGGUGAAUCUGCGAAUUCUGCUGU | 0.212
GGGGGCCACAGCAGAAGCGCUCACGUCGCGGCCCCUGGCAGAUUCUGGUGAAUCUGCGAAUUCUGCUGU | 0.24
GGGGGCCACAGCAGAAGCGCUCACGUCGCGGCCCCUGUCAGACUCUGGUGAAUCUGCGAAUUCUGCUGU | 0.212
GGGGGCCACAGCAGAAGCGCUCACGUCGCGGCCCCUGUCAGAUACUGGUGAAUCUGCGAAUUCUGCUGU | 0.185
GGGGGCCACAGCAGAAGCGCUCACGUCGCGGCCCCUGUCAGAUUCAGGUGAAUCUGCGAAUUCUGCUGU | 0.262
GGGGGCCACAGCAGAAGCGCUCACGUCGCGGCCCCUGUCAGAUUCCGGUGAAUCUGCGAAUUCUGCUGU | 0.257
GGGGGCCACAGCAGAAGCGCUCACGUCGCGGCCCCUGUCAGAUUCGGGUGAAUCUGCGAAUUCUGCUGU | 0.275
GGGGGCCACAGCAGAAGCGCUCACGUCGCGGCCCCUGUCAGAUUCUGGAGAAUCUGCGAAUUCUGCUGU | 0.137
GGGGGCCACAGCAGAAGCGCUCACGUCGCGGCCCCUGUCAGAUUCUGGCGAAUCUGCGAAUUCUGCUGU | 0.214
GGGGGCCACAGCAGAAGCGCUCACGUCGCGGCCCCUGUCAGAUUCUGGGGAAUCUGCGAAUUCUGCUGU | 0.231
GGGGGCCACAGCAGAAGCGCUCACGUCGCGGCCCCUGUCAGAUUCUGGUGAACCUGCGAAUUCUGCUGU | 0.161
GGGGGCCACAGCAGAAGCGCUCACGUCGCGGCCCCUGUCAGAUUCUGGUGAAUCAGCGAAUUCUGCUGU | 0.175
GGGGGCCACAGCAGAAGCGCUCACGUCGCGGCCCCUGUCAGAUUCUGGUGAAUCUGCGAAAUCUGCUGU | 0.236
GGGGGCCACAGCAGAAGCGCUCACGUCGCGGCCCCUGUCAGAUUCUGGUGAAUCUGCGAACUCUGCUGU | 0.182
GGGGGCCACAGCAGAAGCGCUCACGUCGCGGCCCCUGUCAGAUUCUGGUGAAUCUGCGAAUCCUGCUGU | 0.204
GGGGGCCACAGCAGAAGCGCUCACGUCGCGGCCCCUGUCAGAUUCUGGUGAAUCUGCGAAUUCAGCUGU | 0.167
GGGGGCCACAGCAGAAGCGCUCACGUCGCGGCCCCUGUCAGAUUCUGGUGAAUCUGCGAAUUCCGCUGU | 0.278

Variant | self-cleavage
GGGGGCCACAGCAGAAGCGCUCACGUCGCGGCCCCUGUCAGAUUCUGGUGAAUCUGCGAAUUCGGCUGU | 0.104
GGGGGCCACAGCAGAAGCGCUCACGUCGCGGCCCCUGUCAGAUUCUGGUGAAUCUGCGAAUUCUGCAGU | 0.233
GGGGGCCACAGCAGAAGCGCUCACGUCGCGGCCCCUGUCAGAUUCUGGUGAAUCUGCGAAUUCUGCGGU | 0.164
GGGGGCCACAGCAGAAGCGCUCACGUCGCGGCCCCUGUCAGAUUCUGGUGAAUCUGCGAAUUCUGCUGA | 0.124
GGGGGCCACAGCAGAAGCGCUCACGUCGCGGCCCCUGUCAGAUUCUGGUGAAUCUGCGAAUUCUGCUGC | 0.427
GGGGGCCACAGCAGAAGCGGUCACGUCGCGGCCCCUGUCAGAUUCUGGUGAAUCUGCGAAUUCUGCUGU | 0.207
GGGGGCCACAGCAGAAGCGGUCCCGUCGCGGCCCCUGUCAGAUUCUGGUGAAUCUGCGAAUUCUGCUGU | 0.196
GGGGGCCACAGCAGAAGCGGUCGCGUCGCGGCCCCUGUCAGAUUCUGGUGAAUCUGCGAAUUCUGCUGU | 0.32
GGGGGCCACAGCAGAAGCGGUCUCGUCGCGGCCCCUGUCAGAUUCUGGUGAAUCUGCGAAUUCUGCUGU | 0.243
GGGGGCCACAGCAGAAGCGGUCACGUCGCGGCCCCUGUCCGAUUCUGGUGAAUCUGCGAAUUCUGCUGU | 0.243
GGGGGCCACAGCAGAAGCGGUCACGUCGCGGCCCCUGUCGGAUUCUGGUGAAUCUGCGAAUUCUGCUGU | 0.169
GGGGGCCACAGCAGAAGCGGUCACGUCGCGGCCCCUGUCUGAUUCUGGUGAAUCUGCGAAUUCUGCUGU | 0.134
GGGGGCCACAGCAGAAGCGGUCACGUCGCGGCCCCUGUCAGCUUCUGGUGAAUCUGCGAAUUCUGCUGU | 0.279
GGGGGCCACAGCAGAAGCGGUCACGUCGCGGCCCCUGUCAGGUUCUGGUGAAUCUGCGAAUUCUGCUGU | 0.079
GGGGGCCACAGCAGAAGCGGUCACGUCGCGGCCCCUGUCAGUUUCUGGUGAAUCUGCGAAUUCUGCUGU | 0.216
GGGGGCCACAGCAGAAGCGGUCACGUCGCGGCCCCUGUCAGAUUCUGGUGGAUCUGCGAAUUCUGCUGU | 0.193
GGGGGCCACAGCAGAAGCGGUCACGUCGCGGCCCCUGUCAGAUUCUGGUGACUCUGCGAAUUCUGCUGU | 0.148
GGGGGCCACAGCAGAAGCGGUCACGUCGCGGCCCCUGUCAGAUUCUGGUGAGUCUGCGAAUUCUGCUGU | 0.292
GGGGGCCACAGCAGAAGCGGUCACGUCGCGGCCCCUGUCAGAUUCUGGUGAUUCUGCGAAUUCUGCUGU | 0.183
GGGGGCCACAGCAGAAGCGGUCACGUCGCGGCCCCUGUCAGAUUCUGGUGAAUCUGCGGAUUCUGCUGU | 0.204
GGGGGCCACAGCAGAAGCGGUCACGUCGCGGCCCCUGUCAGAUUCUGGUGAAUCUGCGUAUUCUGCUGU | 0.176
GGGGGCCACAGCAGAAGCGGUCACGUCGCGGCCCCUGUCAGAUUCUGGUGAAUCUGCGACUUCUGCUGU | 0.191
GGGGGCCACAGCAGAAGCGGUCACGUCGCGGCCCCUGUCAGAUUCUGGUGAAUCUGCGAGUUCUGCUGU | 0.0625
GGGGGCCACAGCAGAAGCGGUCACGUCGCGGCCCCUGUCAGAUUCUGGUGAAUCUGCGAUUUCUGCUGU | 0.073
GGGGGCCACAGCAGAAGCGGUAACGUCGCGGCCCCUGUCAGAUUCUGGUGAAUCUGCGAAUUCUGCUGU | 0.249
GGGGGCCACAGCAGAAGCGGUGACGUCGCGGCCCCUGUCAGAUUCUGGUGAAUCUGCGAAUUCUGCUGU | 0.192
